Article PMC10397247
Blank lines part the entries; values can stand above or below the binder they belong to.

Assays:
4H2619-bA = molecular target: T1, 4H2619-bA; assay: two-hybrid library CCNG1;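 further: natural log of median RNA to DNA barcode read ratio; higher means stronger binding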
T1 chain: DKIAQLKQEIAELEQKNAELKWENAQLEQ

4H3907-bA = molecular target: T2, 4H3907-bA; assay: two-hybrid library CCNG1;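 further: natural log of median RNA to DNA barcode read ratio; higher means stronger binding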
T2 chain: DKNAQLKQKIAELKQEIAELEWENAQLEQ

4H3961-bA = molecular target: T3, 4H3961-bA; assay: two-hybrid library CCNG1;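 further: natural log of median RNA to DNA barcode read ratio; higher means stronger binding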
T3 chain: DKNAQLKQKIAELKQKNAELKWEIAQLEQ

4H1072-bA = molecular target: T4, 4H1072-bA; assay: two-hybrid library CCNG1;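 further: natural log of median RNA to DNA barcode read ratio; higher means stronger binding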
T4 chain: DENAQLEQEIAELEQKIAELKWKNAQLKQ

4H2745-bA = molecular target: T5, 4H2745-bA; assay: two-hybrid library CCNG1
T5 chain: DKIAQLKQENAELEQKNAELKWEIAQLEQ

4H470-bA = molecular target: T6, 4H470-bA; assay: two-hybrid library CCNG1
T6 chain: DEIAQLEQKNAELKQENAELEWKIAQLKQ

4H3601-bA = molecular target: T7, 4H3601-bA; assay: two-hybrid library CCNG1
T7 chain: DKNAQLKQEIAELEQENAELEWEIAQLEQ

4H363-bA = molecular target: T8, 4H363-bA; assay: two-hybrid library CCNG1
T8 chain: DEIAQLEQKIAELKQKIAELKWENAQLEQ

4H1387-bA = molecular target: T9, 4H1387-bA; assay: two-hybrid library CCNG1
T9 chain: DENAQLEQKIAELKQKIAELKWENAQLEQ

4H2568-bA = molecular target: T10, 4H2568-bA; assay: two-hybrid library CCNG1
T10 chain: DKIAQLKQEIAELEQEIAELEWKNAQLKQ

4H1406-bA = molecular target: T11, 4H1406-bA; assay: two-hybrid library CCNG1
T11 chain: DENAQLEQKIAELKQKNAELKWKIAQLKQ

4H1193-bA = molecular target: T12, 4H1193-bA; assay: two-hybrid library CCNG1
T12 chain: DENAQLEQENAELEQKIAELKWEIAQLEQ

4H3592-bA = molecular target: T13, 4H3592-bA; assay: two-hybrid library CCNG1
T13 chain: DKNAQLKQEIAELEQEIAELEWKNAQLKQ

4H344-bA = molecular target: T14, 4H344-bA; assay: two-hybrid library CCNG1
T14 chain: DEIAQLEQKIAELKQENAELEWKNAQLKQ

4H4038-bA = molecular target: T15, 4H4038-bA; assay: two-hybrid library CCNG1
T15 chain: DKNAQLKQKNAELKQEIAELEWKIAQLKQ

4H967-AA = molecular target: T16, 4H967-AA; assay: two-hybrid library CCmax; conditions: mean of both orientations
T16 chain: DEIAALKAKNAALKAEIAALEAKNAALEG

4H687-AA = molecular target: T17, 4H687-AA; assay: two-hybrid library CCmax; conditions: mean of both orientations
T17 chain: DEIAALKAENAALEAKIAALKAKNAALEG

4H883-AA = molecular target: T18, 4H883-AA; assay: two-hybrid library CCmax; conditions: mean of both orientations
T18 chain: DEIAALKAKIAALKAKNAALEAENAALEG

4H3782-AA = molecular target: T19, 4H3782-AA; assay: two-hybrid library CCmax; conditions: mean of both orientations
T19 chain: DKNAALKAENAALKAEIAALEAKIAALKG

4H953-AA = molecular target: T20, 4H953-AA; assay: two-hybrid library CCmax; conditions: mean of both orientations
T20 chain: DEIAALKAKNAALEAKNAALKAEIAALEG

4H3855-AA = molecular target: T21, 4H3855-AA; assay: two-hybrid library CCmax; conditions: mean of both orientations
T21 chain: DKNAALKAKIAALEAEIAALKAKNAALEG

4H717-AA = molecular target: T22, 4H717-AA; assay: two-hybrid library CCmax; conditions: mean of both orientations
T22 chain: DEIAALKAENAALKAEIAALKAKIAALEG

4H3112-AA = molecular target: T23, 4H3112-AA; assay: two-hybrid library CCmax; conditions: mean of both orientations
T23 chain: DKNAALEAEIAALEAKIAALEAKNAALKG

4H2442-AA = molecular target: T24, 4H2442-AA; assay: two-hybrid library CCmax; conditions: mean of both orientations
T24 chain: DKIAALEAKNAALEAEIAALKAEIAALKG

4H4001-AA = molecular target: T25, 4H4001-AA; assay: two-hybrid library CCmax; conditions: mean of both orientations
T25 chain: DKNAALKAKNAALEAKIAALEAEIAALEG

4H797-AA = molecular target: T26, 4H797-AA; assay: two-hybrid library CCmax; conditions: mean of both orientations
T26 chain: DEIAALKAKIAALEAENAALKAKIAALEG

4H1845-AA = molecular target: T27, 4H1845-AA; assay: two-hybrid library CCmax; conditions: mean of both orientations
T27 chain: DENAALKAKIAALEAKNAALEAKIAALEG

4H3427-AA = molecular target: T28, 4H3427-AA; assay: two-hybrid library CCmax; conditions: mean of both orientations
T28 chain: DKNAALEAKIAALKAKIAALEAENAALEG

4H1446-AA = molecular target: T29, 4H1446-AA; assay: two-hybrid library CCmax
T29 chain: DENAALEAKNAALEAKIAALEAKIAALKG

4H3354-AA = molecular target: T30, 4H3354-AA; assay: two-hybrid library CCmax; conditions: mean of both orientations
T30 chain: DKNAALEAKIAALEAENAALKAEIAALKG

4H568-AA = molecular target: T31, 4H568-AA; assay: two-hybrid library CCmax; conditions: mean of both orientations
T31 chain: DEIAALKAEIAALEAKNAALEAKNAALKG

4H918-AA = molecular target: T32, 4H918-AA; assay: two-hybrid library CCmax; conditions: mean of both orientations
T32 chain: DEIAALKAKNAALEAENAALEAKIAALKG

4H1369-bA = molecular target: T33, 4H1369-bA; assay: two-hybrid library CCNG1
T33 chain: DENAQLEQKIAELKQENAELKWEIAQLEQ

4H3189-bA = molecular target: T34, 4H3189-bA; assay: two-hybrid library CCNG1
T34 chain: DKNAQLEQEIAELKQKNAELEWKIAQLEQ

4H967-bA = molecular target: T35, 4H967-bA; assay: two-hybrid library CCNG1
T35 chain: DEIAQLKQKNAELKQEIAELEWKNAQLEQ

4H72-bA = molecular target: T36, 4H72-bA; assay: two-hybrid library CCNG1
T36 chain: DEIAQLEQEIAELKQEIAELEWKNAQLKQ

4H918-bA = molecular target: T37, 4H918-bA; assay: two-hybrid library CCNG1
T37 chain: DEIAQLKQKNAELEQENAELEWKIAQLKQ

4H2667-bA = molecular target: T38, 4H2667-bA; assay: two-hybrid library CCNG1
T38 chain: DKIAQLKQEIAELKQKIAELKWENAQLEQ

4H883-bA = molecular target: T39, 4H883-bA; assay: two-hybrid library CCNG1
T39 chain: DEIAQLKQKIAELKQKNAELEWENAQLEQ

4H953-bA = molecular target: T40, 4H953-bA; assay: two-hybrid library CCNG1
T40 chain: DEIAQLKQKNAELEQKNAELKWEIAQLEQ

4H2697-bA = molecular target: T41, 4H2697-bA; assay: two-hybrid library CCNG1
T41 chain: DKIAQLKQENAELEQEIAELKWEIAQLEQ

4H2576-bA = molecular target: T42, 4H2576-bA; assay: two-hybrid library CCNG1
T42 chain: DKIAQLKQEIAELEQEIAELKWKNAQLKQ

4H3843-bA = molecular target: T43, 4H3843-bA; assay: two-hybrid library CCNG1
T43 chain: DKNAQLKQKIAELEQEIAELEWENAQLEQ

4H3606-bA = molecular target: T44, 4H3606-bA; assay: two-hybrid library CCNG1
T44 chain: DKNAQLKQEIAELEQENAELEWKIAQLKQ

4H568-bA = molecular target: T45, 4H568-bA; assay: two-hybrid library CCNG1
T45 chain: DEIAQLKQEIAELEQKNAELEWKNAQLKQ

4H4001-bA = molecular target: T46, 4H4001-bA; assay: two-hybrid library CCNG1
T46 chain: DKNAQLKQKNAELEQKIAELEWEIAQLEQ

P9A = molecular target: T47, P9A; assay: two-hybrid library CCNG1
T47 chain: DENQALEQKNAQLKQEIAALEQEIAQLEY

4H2610-bA = molecular target: T48, 4H2610-bA; assay: two-hybrid library CCNG1
T48 chain: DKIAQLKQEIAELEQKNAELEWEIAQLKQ

4H607-bA = molecular target: T49, 4H607-bA; assay: two-hybrid library CCNG1
T49 chain: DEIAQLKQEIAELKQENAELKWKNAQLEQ

4H3782-bA = molecular target: T50, 4H3782-bA; assay: two-hybrid library CCNG1
T50 chain: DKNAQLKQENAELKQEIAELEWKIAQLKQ

4H968-bN = molecular target: T51, 4H968-bN; assay: two-hybrid library CCNG1
T51 chain: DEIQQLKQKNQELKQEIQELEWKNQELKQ

4H1446-bA = molecular target: T52, 4H1446-bA; assay: two-hybrid library CCNG1
T52 chain: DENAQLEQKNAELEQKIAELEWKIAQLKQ

4H462-bA = molecular target: T53, 4H462-bA; assay: two-hybrid library CCNG1
T53 chain: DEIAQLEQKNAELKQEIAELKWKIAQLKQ

4H687-bA = molecular target: T54, 4H687-bA; assay: two-hybrid library CCNG1
T54 chain: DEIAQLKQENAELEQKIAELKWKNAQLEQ

4H797-bA = molecular target: T55, 4H797-bA; assay: two-hybrid library CCNG1
T55 chain: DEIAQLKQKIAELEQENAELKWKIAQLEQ

4H1328-bA = molecular target: T56, 4H1328-bA; assay: two-hybrid library CCNG1
T56 chain: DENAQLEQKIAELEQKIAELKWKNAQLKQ

4H454-bH = molecular target: T57, 4H454-bH; assay: two-hybrid library CCNG1
T57 chain: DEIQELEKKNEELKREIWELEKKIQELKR

4H370-bA = molecular target: T58, 4H370-bA; assay: two-hybrid library CCNG1
T58 chain: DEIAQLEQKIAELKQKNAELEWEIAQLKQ

4H1845-bA = molecular target: T59, 4H1845-bA; assay: two-hybrid library CCNG1
T59 chain: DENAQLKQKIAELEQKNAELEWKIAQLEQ

4H331-bA = molecular target: T60, 4H331-bA; assay: two-hybrid library CCNG1
T60 chain: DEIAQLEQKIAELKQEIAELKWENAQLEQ

- interaction score (4H2619-bA): 0.0458
- interaction score (4H3907-bA): 0.997
- interaction score (4H3961-bA): 1.34
- interaction score (4H1072-bA): 0.969
- interaction score (4H2745-bA): -0.205
- interaction score (4H470-bA): -1.2
- interaction score (4H3601-bA): 0.34
- interaction score (4H363-bA): 1.21
- interaction score (4H1387-bA): 1.46
- interaction score (4H2568-bA): 1.85
- interaction score (4H1406-bA): 0.239
- interaction score (4H1193-bA): 0.766
- interaction score (4H3592-bA): 1.81
- interaction score (4H344-bA): -0.759
- interaction score (4H4038-bA): 1.71
Binder: DENAQLEQEIAELEQKIAELKWKNAQLKQ [4H1072-bA]

- interaction score (4H967-AA): -1.1
- interaction score (4H687-AA): -1.79
- interaction score (4H883-AA): -1.54
- interaction score (4H3782-AA): 0.114
- interaction score (4H953-AA): -0.751
- interaction score (4H3855-AA): -0.445
- interaction score (4H717-AA): -1.15
- interaction score (4H3112-AA): -0.365
- interaction score (4H2442-AA): -1.19
- interaction score (4H4001-AA): 2.23
- interaction score (4H797-AA): -1.49
- interaction score (4H1845-AA): -1.25
- interaction score (4H3427-AA): -0.719
- interaction score (4H1446-AA): 0.267
- interaction score (4H3354-AA): -1.43
- interaction score (4H568-AA): -1.7
- interaction score (4H918-AA): -1.53
Binder: DENAALEAKNAALEAKIAALEAKIAALKG [4H1446-AA]

- interaction score (4H1369-bA): -1.1
- interaction score (4H3189-bA): -0.992
- interaction score (4H967-bA): -0.577
- interaction score (4H72-bA): -1.83
- interaction score (4H3907-bA): -0.444
- interaction score (4H918-bA): -1.33
- interaction score (4H2667-bA): -0.522
- interaction score (4H883-bA): -0.805
- interaction score (4H953-bA): -1.01
- interaction score (4H2697-bA): -0.731
- interaction score (4H2576-bA): 1.08
- interaction score (4H3601-bA): -0.992
- interaction score (4H3843-bA): 0.453
- interaction score (4H3606-bA): -0.984
- interaction score (4H568-bA): -1.33
- interaction score (4H4001-bA): 0.926
- interaction score (P9A): 0.624
- interaction score (4H2610-bA): -0.547
- interaction score (4H607-bA): -0.928
- interaction score (4H1387-bA): -0.852
- interaction score (4H3782-bA): 1.7
- interaction score (4H968-bN): 1.16
- interaction score (4H1446-bA): -0.515
- interaction score (4H1406-bA): -0.0377
- interaction score (4H462-bA): 0.96
- interaction score (4H1193-bA): -1.02
- interaction score (4H687-bA): -0.956
- interaction score (4H797-bA): -1.03
- interaction score (4H3592-bA): -0.214
- interaction score (4H1328-bA): -0.132
- interaction score (4H454-bH): 0.453
- interaction score (4H4038-bA): 2.35
- interaction score (4H370-bA): -1.27
- interaction score (4H1845-bA): -0.841
- interaction score (4H331-bA): -1.28
Binder: DENAQLEQENAELEQKIAELKWEIAQLEQ [4H1193-bA]
